T1: RsmQ (Pseudomonas fluorescens SBW25 plasmid …, UniProt UPI00015066B5 1-62)
T1 sequence: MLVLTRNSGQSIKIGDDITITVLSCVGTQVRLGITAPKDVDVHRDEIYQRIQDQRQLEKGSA


target: T1, RsmQ; assay: SPR (ReDCaT); 500 nM protein; HBS-EP+ (10 mM HEPES, 150 mM NaCl, 3 mM EDTA, 0.05% v/v Tween 20, pH 7.4), 20 C, Biacore 8K, ReDCaT SA chip; high values mean tight binding; details: protein: recombinant; tags: C-terminal TEV site + 6xHis; chain copies: 2

| Molecule | binding signal [%Rmax] |
| --- | --- |
| CGCATCATTTACATGGAAGCGAGTAATCA (ssDNA) [PFLU3467] | 26.05 ± 0.116 |
| CGCCATTCTTCAAGGGAGAGCCGTGTGGC (ssDNA) [PFLU1516] | 63.68 ± 0.594 |
| GGCCGCCCTCTCCGCTGATGGTCGTCTCG (ssDNA) [PFLU3427] | 14.53 ± 0.0808 |
| TCCAGTTTAGGCTTCTAAGGAGCACACCC (ssDNA) [PFLU4414] | 24 ± 0.491 |
| CTGCGCTCCCGATCCTGGATTTTCCGGCC (ssDNA) [PFLU5864] | 19.55 ± 0.081 |
| ACTCAACCAGGAATAAGGAATACAAGAAA (ssDNA) [PFLU0296] | 29.5 ± 0.904 |
| GACATTAATCATATGGAGACACCCTCATG (ssDNA) [PFLU4688] | 18.86 ± 0.102 |
| TCTGTAATGACCACGGAAAAAGTGAAGTA (ssDNA) [PFLU4891] | 28.28 ± 0.104 |
| TTATTATTCGCCAGGGACGGCATTCGGGG (structured_DNA) [PFLU3378] | 130.9 ± 0.261 |
| TTCTAATCGCCTAAGGAGCATTGAGATGT (ssDNA) [PFLU4548] | 25.35 ± 0.144 |
| GAAACATTCCGAACGGAGAAAAAACTGGC (ssDNA) [PFLU2486] | 19.6 ± 0.424 |
| GAAGACTTCGGCATGGAAGCGGCGCGAAC (ssDNA) [PFLU4726] | 52.22 ± 0.504 |
| GTGAGGACTTTAATGGACGACAACAAGAA (ssDNA) [PFLU1189] | 24.64 ± 0.224 |
| TATAAGACTCGTACCCCGGAGCGCTCTCG (ssDNA) [PFLU4968] | 17.5 ± 0.242 |
| CCGCGCACGGAAGCGCAAAC (structured_DNA) [Full_Bind_HP (ACGGA hairpin)] | 61.28 ± 0.301 |
| GGAAGTTTTACTAGGGAAGTTGCTATTGC (ssDNA) [PFLU4443 (fleQ)] | 83.36 ± 0.145 |
| AGTCCTTTAGGCAAGGAGTTAATTGTCGT (ssDNA) [PFLU5529] | 41.03 ± 0.156 |
| CACCAACCCTGCACGTGGAGAGAACAACA (ssDNA) [PFLU5567] | 19.8 ± 0.479 |
| CAAAAATATAAATACCCGCGGGTGAAGTC (ssDNA) [PFLU2358] | 21.4 ± 0.255 |
| AACAATAATGCACATGGAGTAGCGTCGATG (ssDNA) [PFLU0923] | 76.5 ± 1.26 |
| TGCCCCCTTCAGATGGAGTTTCCCCCCGC (ssDNA) [PFLU5986] | 23.9 ± 0.356 |
| CGCCCGTGATCCCATGGAAACTCGAAGACT (ssDNA) [PFLU0998] | 19.2 ± 0.463 |
| AAGACCAGATCCAGGGATATGACGACGCA (ssDNA) [PFLU5652] | 24.3 ± 0.196 |
| AACGGTTCAAATATTCAGAGGATCCAGCT (ssDNA) [PFLU6118] | 21.2 ± 0.215 |
| TCATTACCCTGCAGGGACCAAATCAACTG (ssDNA) [PFLU5860] | 23.7 ± 0.45 |
| CCGCGCAGGAAGCGCAAAC (structured_DNA) [Bind_HP (GGA hairpin)] | 97.319 ± 0.0324 |

system: RsmQ R44A (Pseudomonas fluorescens SBW25 plasmid pQBR103); assay: SPR; details: 100 nM protein; listed as None 2; SPR (ReDCaT SA chip, Biacore 8K): 10 mM HEPES, 150 mM NaCl, 3 mM EDTA, 0.05% Tween 20, pH 7.4, 20 C; RsmQ 100 and 1000 nM (Fig 4: 100-1000 nM)

| Molecule | binding signal [%Rmax] |
| --- | --- |
| CCGCGCACCCAGCGCAAACCCTACCCTACGTCCTCCTGC [NoBind_HP_2] | -1.89 |

system: RsmQ H43A (Pseudomonas fluorescens SBW25 plasmid pQBR103); assay: SPR; details: 100 nM protein; listed as None 2; SPR (ReDCaT SA chip, Biacore 8K): 10 mM HEPES, 150 mM NaCl, 3 mM EDTA, 0.05% Tween 20, pH 7.4, 20 C; RsmQ 100 and 1000 nM (Fig 4: 100-1000 nM)

| Molecule | binding signal [%Rmax] |
| --- | --- |
| CCGCGCACCCAGCGCAAACCCTACCCTACGTCCTCCTGC [NoBind_HP_2] | -2.51 |

system: RsmQ (Pseudomonas fluorescens SBW25 plasmid pQBR103); assay: SPR; details: 100 nM protein; mean of 0.445 and 0.102; listed as None 2; SPR (ReDCaT SA chip, Biacore 8K): 10 mM HEPES, 150 mM NaCl, 3 mM EDTA, 0.05% Tween 20, pH 7.4, 20 C; RsmQ 100 and 1000 nM (Fig 4: 100-1000 nM)

| Molecule | binding signal [%Rmax] |
| --- | --- |
| CCGCGCACCCAGCGCAAACCCTACCCTACGTCCTCCTGC [NoBind_HP_2] | 0.27 |

same assay, conditions: 100 nM protein; mean of 102.98 and 94.19; SPR (ReDCaT SA chip, Biacore 8K): 10 mM HEPES, 150 mM NaCl, 3 mM EDTA, 0.05% Tween 20, pH 7.4, 20 C; RsmQ 100 and 1000 nM (Fig 4: 100-1000 nM)

| Molecule | binding signal [%Rmax] |
| --- | --- |
| CCGCGCAGGAAGCGCAAACCCTACCCTACGTCCTCCTGC [Bind_HP (GGA hairpin)] | 98.6 |

same assay, conditions: SPR (ReDCaT SA chip, Biacore 8K): 10 mM HEPES, 150 mM NaCl, 3 mM EDTA, 0.05% Tween 20, pH 7.4, 20 C; RsmQ 100 and 1000 nM (Fig 4: 100-1000 nM)

| Molecule | binding signal [%Rmax] |
| --- | --- |
| TTCTAATCGCCTAAGGAGCATTGAGATGTCCTACCCTACGTCCTCCTGC [PFLU4548] | < 50 |
| AGTCCTTTAGGCAAGGAGTTAATTGTCGTCCTACCCTACGTCCTCCTGC [PFLU5529] | < 50 |
| CACCAACCCTGCACGTGGAGAGAACAACACCTACCCTACGTCCTCCTGC [PFLU5567] | < 50 |
| GAAACATTCCGAACGGAGAAAAAACTGGCCCTACCCTACGTCCTCCTGC [PFLU2486] | < 50 |
| ACTCAACCAGGAATAAGGAATACAAGAAACCTACCCTACGTCCTCCTGC [PFLU0296] | < 50 |
| TATAAGACTCGTACCCCGGAGCGCTCTCGCCTACCCTACGTCCTCCTGC [PFLU4968] | < 50 |
| TCTGTAATGACCACGGAAAAAGTGAAGTACCTACCCTACGTCCTCCTGC [PFLU4891] | < 50 |
| GTGAGGACTTTAATGGACGACAACAAGAACCTACCCTACGTCCTCCTGC [PFLU1189] | < 50 |
| TCATTACCCTGCAGGGACCAAATCAACTGCCTACCCTACGTCCTCCTGC [PFLU5860] | < 50 |
| AAGACCAGATCCAGGGATATGACGACGCACCTACCCTACGTCCTCCTGC [PFLU5652] | < 50 |
| TGCCCCCTTCAGATGGAGTTTCCCCCCGCCCTACCCTACGTCCTCCTGC [PFLU5986] | < 50 |
| AACGGTTCAAATATTCAGAGGATCCAGCTCCTACCCTACGTCCTCCTGC [PFLU6118] | < 50 |
| CGCATCATTTACATGGAAGCGAGTAATCACCTACCCTACGTCCTCCTGC [PFLU3467] | < 50 |
| GACATTAATCATATGGAGACACCCTCATGCCTACCCTACGTCCTCCTGC [PFLU4688] | < 50 |
| CGCCCGTGATCCCATGGAAACTCGAAGACTCCTACCCTACGTCCTCCTGC [PFLU0998] | < 50 |

same assay, conditions: mean of 1.178 and 0.729; SPR (ReDCaT SA chip, Biacore 8K): 10 mM HEPES, 150 mM NaCl, 3 mM EDTA, 0.05% Tween 20, pH 7.4, 20 C; RsmQ 100 and 1000 nM (Fig 4: 100-1000 nM)

| Molecule | binding signal [%Rmax] |
| --- | --- |
| GGGAAAAAATGTGGGCGGGTCATACCGCCCCTTTTTTTCCTACCCTACGTCCTCCTGC [RsmZ 127-end] | 0.95 |

same assay, conditions: up to 1000 nM protein; SPR (ReDCaT SA chip, Biacore 8K): 10 mM HEPES, 150 mM NaCl, 3 mM EDTA, 0.05% Tween 20, pH 7.4, 20 C; RsmQ 100 and 1000 nM (Fig 4: 100-1000 nM)

| Molecule | binding signal [%Rmax] |
| --- | --- |
| GAAGACTTCGGCATGGAAGCGGCGCGAACCCTACCCTACGTCCTCCTGC [PFLU4726] | > 50 |
| GGAAGTTTTACTAGGGAAGTTGCTATTGCCCTACCCTACGTCCTCCTGC [PFLU4443 (fleQ)] | > 50 |
| CGCCATTCTTCAAGGGAGAGCCGTGTGGCCCTACCCTACGTCCTCCTGC [PFLU1516] | > 50 |
| AACAATAATGCACATGGAGTAGCGTCGATGCCTACCCTACGTCCTCCTGC [PFLU0923] | > 50 |

same assay, conditions: up to 1000 nM protein; highest of the genomic oligos; SPR (ReDCaT SA chip, Biacore 8K): 10 mM HEPES, 150 mM NaCl, 3 mM EDTA, 0.05% Tween 20, pH 7.4, 20 C; RsmQ 100 and 1000 nM (Fig 4: 100-1000 nM)

| Molecule | binding signal [%Rmax] |
| --- | --- |
| TTATTATTCGCCAGGGACGGCATTCGGGGCCTACCCTACGTCCTCCTGC [PFLU3378] | > 50 |

From paper PMC9928087, “Plasmids manipulate bacterial behaviour through translational regulatory crosstalk”
